B1: His-tagged human Sar1A (H79G) [human] / RRFR peptides (first intracellular loop of Fzd6) [mouse] (parent complex)
chain 1: not shown
chain 2: VRRFRYPERPC

Variants of: B1
Assay: peptide pull-down (peptides linked to thiopyridone-Sepharose 6B), immunoblot quantification; n = 3; parent: 1; read off a plot
A ratio to parent of roughly 0.08 was found for chain 2 R2A, chain 2 R3A, chain 2 R5A in this work.

Reference: publication PMC7335806 (2020)
